According to US4423037A, “Inhibitors of peptide hormone action” (The General Hospital Corporation, priority 1982, dated 1983):

Test system: parathyroid hormone
Assay: In vivo inhibition of PTH-stimulated urinary cyclic AMP excretion in thyroparathyroidectomized vitamin D deficient rats
Conditions: same experiment as FIG. 1
Procedure: The compound [Tyr-34]bPTH(7-34)amide was administered in vivo as an inhibitor of PTH stimulated biological activities. The effectivenss of the treatment was measured by measuring the urinary phosphate and cyclic AMP, standard procedures well known in endocrinology as valid measure of PTH activity. The dosage of PTH analogues used varied from more than 3.0 μg/Kg/hr to less than 15 mg/Kg/hr, optimally between 0.3 mg/Kg/hr and 1.5 mg/Kg/hr. Single bolus dosages were occassionally utilized as indicated containing the equivalent of many hours of the infusion procedure.
Male weanling Holtzman rats were maintained on a purified vitamin D deficient diet containing 0.44% calcium and 0.30% phosphorous for 7 weeks. At this time, the rats weighed 130-170 g. Thyroparathyroidectomy of the vitamin D deficient rats was preformed under anesthesia with ketamin hydrochloride injected intratraperitoneally. The femoral vein was cannulated with a heparin-treated polyethylene tube, and the blood was collected via the catheter for determination of blood chemistries. When needed both femoral veins were cannulated. A polyethylene catheter was also inserted into the urinary bladder via the ventral approach. […]
FIG. 2 is an experiment identical to that shown in FIG. 1, however, urinary cyclic AMP is now measured instead of urinary phosphate. […]

B1: bovine parathyroid hormone (protein, UniProt P01268 32-115, looked up)
Parathyroid hormone: AVSEIQFMHNLGKHLSSMERVEWLRKKLQDVHNFVALGASIAYRDGSSQRPRKKEDNVLVESHQKSLGEADKADVDVLIKAKPQ
modifications: Parathyroid hormone
notes: native 84-amino acid bovine parathyroid hormone, infused as the agonist
For B1, the “effect on urine cyclic AMP production, substance administered alone (FIG. 2)” value was “marked effect”.
